Assay results published in patent US20260125472A1 (HEFEI TG IMMUNOPHARMA, published 2026).

Assays:
CD3 on CD8 T cells [1] = target: T1, CD3 on CD8 T cells (Homo sapiens (Human), UniProt P07766 23-207); experiment: flow cytometry, CD8 T cells in PBMCs, binding ratio % [panel A]
T1 construct: Native CD3 complex on CD8 T cells among PBMCs; also called T cells (PBMCs gated with anti-human CD8 antibody)

CD3 on CD8 T cells [2] = target: T1, CD3 on CD8 T cells; experiment: flow cytometry, CD8 T cells in PBMCs, MFI [panel B]
Experimental: (1) PBMCs were diluted to 2×10⁶/ml with PBS and added to a 1.5 ml EP tube at 100 μl/tube, goat serum was added thereto at 10 μl/tube. The cells were blocked at 4° C. for 30 min. The serially diluted bispecific antibodies, Cross3×Trop2, Cross303×Trop2, Cross307×Trop2, Cross308×Trop2, Cross309×Trop2, Cross310×Trop2, Cross311×Trop2, Cross312×Trop2, Cross313×Trop2, Cross314×Trop2, Cross316×Trop2, Cross317×Trop2, Cross318×Trop2, Cross323×Trop2, Cross325×Trop2, Cross326×Trop2, Cross3×PDL1, Cross313×PDL1, Cross316×PDL1, Cross325×PDL1, and control hIgG1LALA (purchased from Bio-Tech) were added and incubated at 4° C. for 30 min. 1 ml of PBS was added to the EP tube, followed by centrifugation at 3500 rpm for 5 min at 4° C. The supernatant was discarded, and the system was washed again with PBS. After centrifugation, the supernatant was discarded, and the cells were resuspended with PBS at 100 μl/tube. 1 μl/tube Alexa-647-labeled goat anti-human IgG secondary antibody (purchased from Jackson lab) and 0.5 μl/tube PerCP-Cy5.5-labeled anti-human CD8 antibody were added and incubated at 4° C. in the dark for 30 min. The cells were washed twice with PBS. After centrifugation, the supernatant was discarded. The cells were resuspended with 200 μl/tube of PBS and assay is performed by flow cytometry.

CD3E&D protein = target: T2, CD3E&D protein (UniProt P04234 22-105); experiment: ELISA, coated CD3E&D protein, OD450
T2 construct: Purchased from Acro; also called CD3 E&D antigens; CD3E&D antigen protein
Text: In this example, the binding properties of the CD3×Trop2 and CD3×PDL1 bispecific antibody (the production method and the amino acid sequences of the heavy and light chains were shown in Example 1) were detected by using ELISA. The CD3E&D, Trop2, or PDL1 protein was coated onto 96-well plates by inventors, and the strength of the signal after the addition of the antibody was used to determine the binding properties of the antibody and the corresponding protein.
(1) CD3E&D protein (purchased from Acro) was diluted to 2 μg/ml with PBS buffer, added to a 96-well plate at a volume of 100 μL/well, and placed at 4° C. overnight. The PBS buffer in the 96-well plate was aspirated, and the plate was washed 6 times with PBST (pH 7.2 PBS containing 0.1% Tween 20) buffer. Then, 200 μL/well PBS/10% BSA was added and incubated at 37° C. for 2 h for blocking. The blocking solution was removed, and the plate was washed 6 times with PBST. […] The absorbance was read at 450 nm using a microplate reader.

T1 sequence (P07766 23-207 limits assumed): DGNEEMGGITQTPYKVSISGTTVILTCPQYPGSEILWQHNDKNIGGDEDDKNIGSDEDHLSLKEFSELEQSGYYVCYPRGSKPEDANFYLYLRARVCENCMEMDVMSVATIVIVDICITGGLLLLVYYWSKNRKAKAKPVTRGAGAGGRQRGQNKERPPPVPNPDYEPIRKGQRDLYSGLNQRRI
T2 sequence (chain, as listed by the source limits assumed, chain 1 of 2): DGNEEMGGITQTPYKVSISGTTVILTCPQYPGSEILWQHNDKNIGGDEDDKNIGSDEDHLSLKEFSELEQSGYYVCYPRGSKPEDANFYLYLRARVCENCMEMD
T2 sequence (P04234 22-105 limits assumed, chain 2 of 2): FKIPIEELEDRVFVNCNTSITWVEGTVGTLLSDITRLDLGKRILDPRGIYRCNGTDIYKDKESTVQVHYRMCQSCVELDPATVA

EC50 (read off the curve) (CD3 on CD8 T cells [1]): ~0.7 µg/mL
EC50 (read off the curve) (CD3 on CD8 T cells [2]): ~4 µg/mL
EC50 (read off the curve) (CD3E&D protein): ~0.04 µg/mL
B1: Cross311×Trop2 (bispecific antibody)
scFv: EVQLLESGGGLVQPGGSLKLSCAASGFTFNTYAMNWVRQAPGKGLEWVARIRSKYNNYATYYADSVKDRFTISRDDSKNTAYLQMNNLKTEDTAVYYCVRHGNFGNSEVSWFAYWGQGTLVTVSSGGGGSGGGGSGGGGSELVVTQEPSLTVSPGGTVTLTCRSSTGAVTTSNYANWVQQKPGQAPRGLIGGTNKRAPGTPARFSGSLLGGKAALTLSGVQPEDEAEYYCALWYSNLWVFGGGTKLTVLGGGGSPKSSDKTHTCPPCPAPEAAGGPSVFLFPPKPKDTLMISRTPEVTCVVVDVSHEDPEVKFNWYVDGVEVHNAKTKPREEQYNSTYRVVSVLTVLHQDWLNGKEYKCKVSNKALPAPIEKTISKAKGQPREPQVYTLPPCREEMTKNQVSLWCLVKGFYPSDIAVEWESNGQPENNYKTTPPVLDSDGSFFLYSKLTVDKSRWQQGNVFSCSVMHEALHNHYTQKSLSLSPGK
heavy: QVQLQQSGSELKKPGASVKVSCKASGYTFTNYGMNWVKQAPGQGLKWMGWINTYTGEPTYTDDFKGRFAFSLDTSVSTAYLQISSLKADDTAVYFCARGGFGSSYWYFDVWGQGSLVTVSSASTKGPSVFPLAPSSKSTSGGTAALGCLVKDYFPEPVTVSWNSGALTSGVHTFPAVLQSSGLYSLSSVVTVPSSSLGTQTYICNVNHKPSNTKVDKKVEPKSSDKTHTCPPCPAPEAAGGPSVFLFPPKPKDTLMISRTPEVTCVVVDVSHEDPEVKFNWYVDGVEVHNAKTKPREEQYNSTYRVVSVLTVLHQDWLNGKEYKCKVSNKALPAPIEKTISKAKGQPREPQVCTLPPSREEMTKNQVSLSCAVKGFYPSDIAVEWESNGQPENNYKTTPPVLDSDGSFFLVSKLTVDKSRWQQGNVFSCSVMHEALHNHYTQKSLSLSPGK
light: DIQLTQSPSSLSASVGDRVSITCKASQDVSIAVAWYQQKPGKAPKLLIYSASYRYTGVPDRFSGSGSGTDFTLTISSLQPEDFAVYYCQQHYITPLTFGAGTKVEIKRTVAAPSVFIFPPSDEQLKSGTASVVCLLNNFYPREAKVQWKVDNALQSGNSQESVTEQDSKDSTYSLSSTLTLSKADYEKHKVYACEVTHQGLSSPVTKSFNRGEC
